Test results published in patent publication US20080248995, “Modulation of PPARgamma2 gene promoter by FOXO1” (Technion Research and Development Foundation Ltd., published 2008).

Columns and labels:
[1] = target: FOXO1 (FLAG-tagged, transfected) (Homo sapiens) (UniProt Q12778); test: cell_activity; settings: 3xIRS-LUC in primary rat adipocytes, data not shown
[2] = target: T1, FOXO1 (FLAG-tagged, full-length) (Homo sapiens, UniProt Q12778 SEQ:126-780); test: EMSA; competed by 100x and 200x unlabeled probe; supershift with anti-FLAG and anti-FOXO1 H-128, not N-18; 50 mM KCl, 1 mM EDTA, pH 7.9, poly(dI-dC), 25 C; settings: tags: FLAG; TnT reticulocyte lysate; label: 32P
T1 chain: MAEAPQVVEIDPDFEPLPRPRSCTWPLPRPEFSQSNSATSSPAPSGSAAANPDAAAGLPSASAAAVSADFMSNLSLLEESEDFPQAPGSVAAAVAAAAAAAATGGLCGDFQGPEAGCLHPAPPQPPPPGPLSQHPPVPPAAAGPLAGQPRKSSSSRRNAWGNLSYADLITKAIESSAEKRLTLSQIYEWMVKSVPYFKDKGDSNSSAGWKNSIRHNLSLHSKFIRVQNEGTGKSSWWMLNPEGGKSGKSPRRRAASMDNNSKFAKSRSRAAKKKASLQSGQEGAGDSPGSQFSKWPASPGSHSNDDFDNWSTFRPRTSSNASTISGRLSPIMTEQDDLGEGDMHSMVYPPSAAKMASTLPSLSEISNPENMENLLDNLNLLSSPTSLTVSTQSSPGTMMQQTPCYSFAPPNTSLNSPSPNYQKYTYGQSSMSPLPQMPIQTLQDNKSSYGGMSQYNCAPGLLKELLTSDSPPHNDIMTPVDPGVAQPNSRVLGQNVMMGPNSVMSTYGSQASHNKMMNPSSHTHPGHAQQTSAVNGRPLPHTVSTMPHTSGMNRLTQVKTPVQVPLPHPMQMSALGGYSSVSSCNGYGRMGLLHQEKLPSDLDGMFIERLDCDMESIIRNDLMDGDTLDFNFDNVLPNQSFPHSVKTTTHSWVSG
Experimental: (vi) In vitro Translation and Electrophoretic Mobility Shift Assay (EMSA)—In vitro translation of FOXO1 proteins and EMSA studies were performed as described (Armoni et al., 2003). The TnT SP6/T7-coupled reticulocyte lysate system (Promega, Madison Wis.) was used to generate in vitro translated FLAG-tagged FOXO1 proteins from the corresponding cDNA, and the resulting protein lysate was used in EMSA. Protein expression was confirmed by SDS-PAGE, followed by phosphorimaging analysis of proteins translated in the presence of ³⁵S-methionine (cell labeling grade; Amersham, Buckinghamshire, UK). In vitro translation reactions generated sufficient protein to use in EMSA studies. Sense and antisense PPARγ promoter-derived oligonucleotides were synthesized that correspond to bp 270-310 of hG2-587 (sense: […] TGGGT […]) (SEQ ID NO: 4); these were annealed and end-labeled with γ-³²P-ATP (6000 Ci/mmol; Amersham, Buckinghamshire, UK) in the presence of polynucleotide kinase. Protein-DNA binding reactions were assembled in a total volume of 20 μl, which included 4 μl of the in vitro translated FOXO1 lysate, radiolabeled probe (˜75,000 cpm), and 4 μg of poly(dI-dC) in a buffer containing 10 mM HEPES (pH 7.9), 1 mM dithiothreitol, 1 mM EDTA, 4% Ficoll, and 50 mM KCl. […] Gels were fixed in 10% acetic acid for 15 min, dried, and analyzed by phosphorimaging.

Question: With “3xIRS (three insulin response element repeats) in pGL2-LUC” as the molecule, how does the activity (fold activation) [1] read?
Answer: < 8.5

B1: hPPARγ2 promoter bp 270-310 (dsDNA)
DNA 1: GACACTGAACATGTGGGTCACCGGCGAGACAGTGTGGCAA
DNA 2: TTGCCACACTGTCTCGCCGGTGACCCACATGTTCAGTGTC
Question: Does B1 bind [2]?
Answer: binds
